Source: patent US20240083974A1 (ETH Z RICH, published 2024)
Ends that are not written are not given here.

Biological target: T1, artificial transmembrane protein with eYFP (enhanced yellow fluorescent protein) as the receptor structure (Aequorea victoria (Water jellyfish) …, UniProt P42212 2-238 = GFP)
T1 construct: Control construct in living cells; not shown: Three are signal peptide-SNAPf-PdgfrTM-Li
Assay: label-free diffraction signal (focal molography) from living cells on a nanopatterned waveguide after injection of the peptide

B1: Grb2-targeting peptide (peptide)
peptide: KKWKMRRNPFWIKIQRCCGIRVVDNSPPPPLPPRRRRSAPSPTRV-NH2
modifications: cysteine pairing not given here
notes: The hyphen between the two Cys may mean two peptides joined by a disulfide; also called P6; protein specifically targeting Grb2
Question: Does B1 bind?
Answer: no binding
